Measurements: patent publication US20060199194A1

Key:
[1] = molecular target: TAU-412 target protein (human) (UniProt P10636); test: sandwich Immuno Q-Amp assay: capture MN1010, TAU-412 10 ng per well, biotin MN1000 reporter, avidin-biotin-MNVplus template, Q-beta replicase, SYBR Green fluorescence; Superblock blocking
[2] = molecular target: TAU-412 target protein (human) (UniProt P10636); test: sandwich Immuno Q-Amp assay: capture MN1010, TAU-412 10 ng per well, biotin MN1000 reporter, avidin-biotin-MNVplus template, Q-beta replicase, SYBR Green fluorescence; Startingblock blocking

Sequence of UniProt P10636 (P10636 other isoform, or with tags, fused parts or gaps): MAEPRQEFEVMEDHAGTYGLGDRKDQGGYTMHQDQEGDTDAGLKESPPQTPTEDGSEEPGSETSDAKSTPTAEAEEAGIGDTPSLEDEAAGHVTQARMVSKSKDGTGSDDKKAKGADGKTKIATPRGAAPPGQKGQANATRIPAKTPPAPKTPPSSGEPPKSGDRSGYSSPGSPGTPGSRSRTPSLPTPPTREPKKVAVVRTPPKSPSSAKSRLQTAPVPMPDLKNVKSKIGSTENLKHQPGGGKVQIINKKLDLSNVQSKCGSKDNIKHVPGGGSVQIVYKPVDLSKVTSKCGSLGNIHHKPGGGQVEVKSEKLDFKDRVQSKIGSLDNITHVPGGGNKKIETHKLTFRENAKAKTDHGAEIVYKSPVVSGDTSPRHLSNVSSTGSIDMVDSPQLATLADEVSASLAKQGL

In the case of “anti-TAU, biotinylated antibody MN-1000 (Pierce, #MN1000B)”, the RT (response time, Superblock blocking) [1] is reported as 15 min and the RT (response time, starting block blocking) [2] is reported as 13.5 min.
